Laboratory results taken from article PMC5623700.
Where two headings read alike, the source gives them in different places. Blank lines part the entries; values can stand above or below the substance they belong to.

Assays:
[1] = molecular target: human FcRn (human FCGRT & B2M heterodimer) (human) (UniProt P55899); assay: BLI; Octet Red384, multicycle kinetics; FcRn amine-coupled to AR2G tips, IgG1 2.5-80 nM; association and dissociation at pH 6 (50 mM phosphate, 150 mM NaCl, 0.1% Tween 20); heterogeneous ligand model; KD observed
[2] = molecular target: human FcRn (human FCGRT & B2M heterodimer) (human) (UniProt P55899); assay: BLI; Octet Red384; FcRn amine-coupled to AR2G tips; 320 nM IgG1 associated at pH 6 and dissociated at pH 7.2; fraction bound 5 s after the start of dissociation (response at 0 s = 100%)
[3] = molecular target: recombinant human FcγRIIb (human) (UniProt P31994); assay: SPR; SPR imaging (IBIS MX96); biotinylated Fcγ receptors on a streptavidin G-Strep SensEye sensor, IgG injected; HBS pH 7.2/0.05% Tween-80; binding level at equilibrium (2 min) relative to a reference sample set to 100%; 50 and 250 μg/mL IgG1 (FcγRIIa, FcγRIIIa) or 250 and 1000 μg/mL (FcγRIIb, FcγRIIIb); corrected for decay of the surface
Sequence of UniProt P31994 (P31994 43-310): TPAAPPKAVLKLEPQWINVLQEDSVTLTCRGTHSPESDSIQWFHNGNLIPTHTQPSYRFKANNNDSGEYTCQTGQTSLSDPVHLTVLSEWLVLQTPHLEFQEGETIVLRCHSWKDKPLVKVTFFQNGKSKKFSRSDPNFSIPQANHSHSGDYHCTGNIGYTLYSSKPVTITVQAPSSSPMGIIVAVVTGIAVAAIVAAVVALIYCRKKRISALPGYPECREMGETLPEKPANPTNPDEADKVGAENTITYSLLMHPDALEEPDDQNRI

[4] = molecular target: recombinant human FcγRIIIb (human) (UniProt O75015); assay: as above
Sequence of UniProt O75015 (O75015 17-200): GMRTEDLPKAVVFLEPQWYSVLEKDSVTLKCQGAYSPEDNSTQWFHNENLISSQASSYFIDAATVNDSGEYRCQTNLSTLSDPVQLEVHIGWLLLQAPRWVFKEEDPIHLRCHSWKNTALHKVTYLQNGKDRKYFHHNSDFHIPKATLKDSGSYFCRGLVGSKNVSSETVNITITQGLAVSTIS

[5] = molecular target: recombinant human FcγRIIa (human) (UniProt P12318); assay: as above
Sequence of UniProt P12318 (P12318 34-317): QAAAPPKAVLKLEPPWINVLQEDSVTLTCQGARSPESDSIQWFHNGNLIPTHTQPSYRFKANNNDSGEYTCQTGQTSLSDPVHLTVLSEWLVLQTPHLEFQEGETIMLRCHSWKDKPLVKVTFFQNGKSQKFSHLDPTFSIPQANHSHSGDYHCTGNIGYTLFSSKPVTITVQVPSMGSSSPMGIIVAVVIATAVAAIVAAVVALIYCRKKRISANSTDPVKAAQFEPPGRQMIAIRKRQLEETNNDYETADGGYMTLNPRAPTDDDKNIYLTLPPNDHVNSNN

[6] = molecular target: recombinant human FcγRIIIa (human) (UniProt P08637); assay: as above
Sequence of UniProt P08637 (P08637 17-254): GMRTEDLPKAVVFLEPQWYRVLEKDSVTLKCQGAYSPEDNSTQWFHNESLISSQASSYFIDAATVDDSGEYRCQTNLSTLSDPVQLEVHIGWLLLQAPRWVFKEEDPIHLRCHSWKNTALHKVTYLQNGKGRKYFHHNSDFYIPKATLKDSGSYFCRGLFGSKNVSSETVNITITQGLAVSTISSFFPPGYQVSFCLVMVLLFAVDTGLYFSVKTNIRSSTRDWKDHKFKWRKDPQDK

[7] = molecular target: T1, neonatal Fc receptor (FcRn), FCGRT + beta2-microglobulin heterodimer (UniProt P55899+P61769); assay: biolayer interferometry (Octet Red384), dissociation after a pH switch; settings: pH 7.2; 150 mM NaCl; association in 50 mM phosphate pH 6; dissociation in 50 mM phosphate pH 7.2 (Methods; Results and Discussion say pH 7.4)
[8] = molecular target: human FcRn (human FCGRT & B2M heterodimer) (human) (UniProt P55899); assay: BLI; Octet Red384, multicycle kinetics; FcRn amine-coupled to AR2G tips, IgG1 2.5-80 nM; association and dissociation at pH 6 (50 mM phosphate, 150 mM NaCl, 0.1% Tween 20); heterogeneous ligand model; KD observed; remark: listed apart in the source
[9] = molecular target: human FcγRI with a C-terminal AVI-tag and C-terminal His-tag (Sino Biological) (human) (UniProt P12314); assay: SPR; Biacore T200, single-cycle kinetics; biotinylated FcγRI captured on a CAPchip, IgG1 injected at 0.06-5 nM; HBS-EP+; 37 °C; 1:1 kinetic model; KD observed
Sequence of UniProt P12314 (P12314 16-292): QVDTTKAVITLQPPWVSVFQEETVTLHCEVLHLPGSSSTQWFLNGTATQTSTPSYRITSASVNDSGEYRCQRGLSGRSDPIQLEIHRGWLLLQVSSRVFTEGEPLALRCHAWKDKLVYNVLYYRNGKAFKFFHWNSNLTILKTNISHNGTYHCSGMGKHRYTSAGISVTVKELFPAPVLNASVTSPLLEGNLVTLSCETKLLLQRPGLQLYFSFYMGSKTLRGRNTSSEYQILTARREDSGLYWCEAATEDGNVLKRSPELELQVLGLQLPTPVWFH

[10] = molecular target: human FcγRI with a C-terminal AVI-tag and C-terminal His-tag (Sino Biological) (human) (UniProt P12314); assay: as above; remark: listed apart in the source
[11] = molecular target: T1, neonatal Fc receptor (FcRn), FCGRT + beta2-microglobulin heterodimer; assay: biolayer interferometry (Octet Red384), dissociation after a pH switch; settings: pH 7.2; 150 mM NaCl; association in 50 mM phosphate pH 6; dissociation in 50 mM phosphate pH 7.2 (Methods; Results and Discussion say pH 7.4); remark: listed apart in the source
[12] = molecular target: human FcRn (human FCGRT & B2M heterodimer) (human) (UniProt P55899); assay: BLI; as a4 (FcRn on AR2G tips, pH 6), but fitted with a 1:1 binding model; not corrected for the molecular weight of the aggregates; apparent
[13] = stress condition 40 °C‐1000 r.p.m._24 h
[14] = stress condition 40 °C‐1000 r.p.m._48 h

Kd ([1]; stress condition F‐T 1): 5.7 nM
Kd ([1]; stress condition F‐T 10): 5.2 nM
fraction bound at neutral pH ([2]; stress condition F‐T 1): 8.4%
fraction bound at neutral pH ([2]; stress condition F‐T 5): 8.1%
fraction bound at neutral pH ([2]; stress condition F‐T 10): 7.4%
relative binding (% of reference) ([3]; stress condition F‐T 1): 102%
relative binding (% of reference) ([3]; stress condition F‐T 5): 97.2%
relative binding (% of reference) ([3]; stress condition F‐T 10): 95.9%
relative binding (% of reference) ([4]; stress condition F‐T 1): 106%
relative binding (% of reference) ([4]; stress condition F‐T 5): 105%
relative binding (% of reference) ([4]; stress condition F‐T 10): 102%
relative binding (% of reference) ([5]; stress condition F‐T 1): 102%
relative binding (% of reference) ([5]; stress condition F‐T 5): 92.3%
relative binding (% of reference) ([5]; stress condition F‐T 10): 85.9%
relative binding (% of reference) ([6]; stress condition F‐T 1): 80.1%
relative binding (% of reference) ([6]; stress condition F‐T 5): 103%
relative binding (% of reference) ([6]; stress condition F‐T 10): 98.7%
Substance: human IgG1 after repeated freeze/thaw cycles (antibody)

Kd [1]: 5.7 nM
Kd [8]: 6.3 nM
fraction bound at neutral pH [2]: 7.5%
Kd [9]: 0.56 nM
maximum response [9]: 80 RU
Kd [10]: 0.66 nM
Substance: human IgG1 monoclonal antibody, reference sample

relative binding (% of reference) [3]: 93.4%
relative binding (% of reference) [4]: 127%
relative binding (% of reference) [5]: 62.5%
relative binding (% of reference) [6]: 72.7%
Substance: human IgG1 heated to 70 °C for 15 min at 300 r.p.m. (antibody)

Kd [1]: 4.9 nM
Kd [9]: 0.52 nM
Substance: human IgG1, 0% deglycosylated control of the deglycosylation (antibody)

Fraction bound (5 s after start of dissociation at neutral pH) [7]: 8.6%
Substance: human IgG1, 40 °C-1000 r.p.m._72 h

Fraction bound (5 s after start of dissociation at neutral pH) [7]: 7.9%
Substance: human IgG1, pH7.2_96 h control

Fraction bound (5 s after start of dissociation at neutral pH) [7]: 7.7%
Substance: human IgG1, H2O2_0.5% oxidised

Fraction bound (5 s after start of dissociation at neutral pH) [7]: 7.9%
Substance: human IgG1, 40 °C-1000 r.p.m._24 h

fraction bound at neutral pH [2]: 17.7%
Kd [12]: 3 nM
Kd [10]: 0.07 nM
Substance: covalent oligomer fraction of IgG1 (DSS cross-linked, preparative SEC) (antibody)

Fraction bound (5 s after start of dissociation at neutral pH) [7]: 7.4%
Substance: human IgG1, 10 freeze/thaw cycles

Kd ([1]; stress condition pH7.2_48 h): 5.5 nM
Kd ([1]; stress condition pH7.2_72 h): 6.1 nM
Kd ([1]; stress condition pH7.2_96 h): 5.6 nM
fraction bound at neutral pH [2]: 7.6%
Kd ([9]; stress condition pH7.2_48 h): 0.59 nM
Kd ([9]; stress condition pH7.2_72 h): 0.48 nM
Kd ([9]; stress condition pH7.2_96 h): 0.58 nM
Substance: human IgG1 kept at 40 °C in HBS buffer pH 7.2 (control of the deamidation stress) (antibody)

fraction bound at neutral pH [2]: 17.3%
Kd [10]: 0.08 nM
Substance: covalent dimer fraction of IgG1 (DSS cross-linked, preparative SEC) (antibody)

Kd [1]: 3.7 nM
fraction bound at neutral pH [2]: 14.3%
relative binding (% of reference) [3]: 90.6%
relative binding (% of reference) [4]: 83.9%
relative binding (% of reference) [5]: 102%
relative binding (% of reference) [6]: 79.7%
Kd [9]: 0.44 nM
Substance: human IgG1 with 3% afucosylation (antibody)

Fraction bound (5 s after start of dissociation at neutral pH) [7]: 7.3%
Substance: human IgG1, 40 °C-1000 r.p.m._48 h

Further lines, the substance ahead of its results:

Substance: human IgG1, 1 freeze/thaw cycle
Fraction bound (5 s after start of dissociation at neutral pH) [7]: 8.4%

Substance: human IgG1, deamidated pH8.0_96 h
Fraction bound (5 s after start of dissociation at neutral pH) [7]: 10%

Substance: human IgG1, monomer fraction of the DSS cross-linking preparation
Fraction bound (5 s after start of dissociation at neutral pH) [11]: 8.9%

Substance: human IgG1, DG 100 (fully deglycosylated with PNGase F)
Fraction bound (5 s after start of dissociation at neutral pH) [7]: 4.1%

Substance: monomer fraction of the DSS-treated IgG1 sample (preparative SEC) (antibody)
Kd [8]: 7 nM
fraction bound at neutral pH [2]: 8.9%
Kd [10]: 0.52 nM

Substance: human IgG1 with 8% afucosylation (antibody)
Kd [1]: 3.7 nM
Kd [9]: 0.43 nM

Substance: human IgG1, deamidated pH8.0_72 h
Fraction bound (5 s after start of dissociation at neutral pH) [7]: 6.5%

Substance: human IgG1, AF 3 (3% afucosylated)
Fraction bound (5 s after start of dissociation at neutral pH) [7]: 14.3%

Substance: human IgG1, 5 freeze/thaw cycles
Fraction bound (5 s after start of dissociation at neutral pH) [7]: 8.1%

Substance: human IgG1, deamidated pH8.0_48 h
Fraction bound (5 s after start of dissociation at neutral pH) [7]: 7.8%

Substance: human IgG1 after thermal/shake stress at 40 °C and 1000 r.p.m. (antibody)
Kd [1, 13]: 5.5 nM
Kd [1, 14]: 5 nM
Kd ([1]; stress condition 40 °C‐1000 r.p.m._72 h): 5.4 nM
fraction bound at neutral pH [2, 13]: 7.9%
fraction bound at neutral pH [2, 14]: 7.3%
Kd [9, 13]: 0.53 nM
Kd [9, 14]: 0.45 nM

Substance: human IgG1, pH7.2_72 h control
Fraction bound (5 s after start of dissociation at neutral pH) [7]: 8.3%

Substance: human IgG1, AF 70 (70% afucosylated)
Fraction bound (5 s after start of dissociation at neutral pH) [7]: 15.7%

Substance: human IgG1, DG 0 (glycosylated control of the deglycosylation experiment)
Fraction bound (5 s after start of dissociation at neutral pH) [7]: 8.5%

Substance: human IgG1 after accelerated asparagine deamidation at pH 8 (antibody)
fraction bound at neutral pH ([2]; stress condition pH8.0_48 h): 7.8%
fraction bound at neutral pH ([2]; stress condition pH8.0_72 h): 6.5%

Substance: human IgG1 monoclonal antibody, reference (unstressed)
Fraction bound (5 s after start of dissociation at neutral pH) [11]: 7.5%
Fraction bound (5 s after start of dissociation at neutral pH) [7]: 8.3%

Substance: human IgG1, H2O2_0.25% oxidised
Fraction bound (5 s after start of dissociation at neutral pH) [7]: 6.4%

Substance: human IgG1 heated to 75 °C for 15 min at 300 r.p.m. (antibody)
relative binding (% of reference) [3]: > 1000%
relative binding (% of reference) [4]: > 1000%
relative binding (% of reference) [5]: > 1000%
relative binding (% of reference) [6]: 389%

Substance: human IgG1 with 70% afucosylation (antibody)
Kd [1]: 3.8 nM
fraction bound at neutral pH [2]: 15.7%
relative binding (% of reference) [3]: 110%
relative binding (% of reference) [4]: 186%
relative binding (% of reference) [5]: 104%
relative binding (% of reference) [6]: 159%
Kd [9]: 0.33 nM

Substance: human IgG1, pH7.2_48 h control
Fraction bound (5 s after start of dissociation at neutral pH) [7]: 7.6%

Substance: fully deglycosylated human IgG1 (PNGase F) (antibody)
Kd [1]: 6.3 nM
maximum response [9]: 5 RU

Substance: human IgG1 after accelerated methionine oxidation with H2O2 (antibody)
Kd [1]: 6.2 nM
fraction bound at neutral pH [2]: 6.4%
Kd ([9]; stress condition H2O2_0.1%): 0.93 nM
Kd ([9]; stress condition H2O2_0.25%): 0.53 nM
Kd ([9]; stress condition H2O2_0.5%): 0.42 nM
